According to PMC3206214 (Molecular cell, 2011):

B1: GST-CDG1 (natural protein, Arabidopsis, UniProt Q9LSE1 1-432, looked up)
chain: MVSCLCFRPSRKTKLKDKSHKRSIRNQTSSSSAQPAGTAKEVDSSSSQTVVQDSSRYRCQIFSYRELAIATNSFRNESLIGRGGFGTVYKGRLSTGQNIAVKMLDQSGIQGDKEFLVEVLMLSLLHHRNLVHLFGYCAEGDQRLVVYEYMPLGSVEDHLYDLSEGQEALDWKTRMKIALGAAKGLAFLHNEAQPPVIYRDLKTSNILLDHDYKPKLSDFGLAKFGPSDDMSHVSTRVMGTHGYCAPEYANTGKLTLKSDIYSFGVVLLELISGRKALMPSSECVGNQSRYLVHWARPLFLNGRIRQIVDPRLARKGGFSNILLYRGIEVAFLCLAEEANARPSISQVVECLKYIIDHTIRKERRTRRRLLGGNKDGAGTSRSPDETMMRMLEEEEEYVTSEEAIERRRVIVDDARTWAGMNRRGATPPTPTP
B2: GST-BIN2 (natural protein, Arabidopsis, UniProt Q39011 1-380, looked up)
chain: MADDKEMPAAVVDGHDQVTGHIISTTIGGKNGEPKQTISYMAERVVGTGSFGIVFQAKCLETGETVAIKKVLQDRRYKNRELQLMRVMDHPNVVCLKHCFFSTTSKDELFLNLVMEYVPESLYRVLKHYSSANQRMPLVYVKLYMYQIFRGLAYIHNVAGVCHRDLKPQNLLVDPLTHQVKICDFGSAKQLVKGEANISYICSRFYRAPELIFGATEYTTSIDIWSAGCVLAELLLGQPLFPGENAVDQLVEIIKVLGTPTREEIRCMNPHYTDFRFPQIKAHPWHKIFHKRMPPEAIDFASRLLQYSPSLRCTALEACAHPFFDELREPNARLPNGRPFPPLFNFKQEVAGSSPELVNKLIPDHIKRQLGLSFLNQSGT
B3: GST-CDG1 pre-incubated with GST-BRI1-K and ATP (natural protein, Arabidopsis, UniProt Q9LSE1 1-432, looked up)
chain: B1 chain
modifications: phosphoserine at 44, 47 and 234 (BRI1 phosphorylation sites, found by mass spectrometry on GST-CDG1-Y147G)

Assays:
Assay in all cases: far-Western, overlay or dot blot
MBP-BSU1 = MBP-BSU1 (Arabidopsis, UniProt Q9LR78 1-793)
MBP-BSU1-S764A = biological target: T1, MBP-BSU1-S764A (Arabidopsis, UniProt Q9LR78 1-793, S764A)
T1 sequence (looked up): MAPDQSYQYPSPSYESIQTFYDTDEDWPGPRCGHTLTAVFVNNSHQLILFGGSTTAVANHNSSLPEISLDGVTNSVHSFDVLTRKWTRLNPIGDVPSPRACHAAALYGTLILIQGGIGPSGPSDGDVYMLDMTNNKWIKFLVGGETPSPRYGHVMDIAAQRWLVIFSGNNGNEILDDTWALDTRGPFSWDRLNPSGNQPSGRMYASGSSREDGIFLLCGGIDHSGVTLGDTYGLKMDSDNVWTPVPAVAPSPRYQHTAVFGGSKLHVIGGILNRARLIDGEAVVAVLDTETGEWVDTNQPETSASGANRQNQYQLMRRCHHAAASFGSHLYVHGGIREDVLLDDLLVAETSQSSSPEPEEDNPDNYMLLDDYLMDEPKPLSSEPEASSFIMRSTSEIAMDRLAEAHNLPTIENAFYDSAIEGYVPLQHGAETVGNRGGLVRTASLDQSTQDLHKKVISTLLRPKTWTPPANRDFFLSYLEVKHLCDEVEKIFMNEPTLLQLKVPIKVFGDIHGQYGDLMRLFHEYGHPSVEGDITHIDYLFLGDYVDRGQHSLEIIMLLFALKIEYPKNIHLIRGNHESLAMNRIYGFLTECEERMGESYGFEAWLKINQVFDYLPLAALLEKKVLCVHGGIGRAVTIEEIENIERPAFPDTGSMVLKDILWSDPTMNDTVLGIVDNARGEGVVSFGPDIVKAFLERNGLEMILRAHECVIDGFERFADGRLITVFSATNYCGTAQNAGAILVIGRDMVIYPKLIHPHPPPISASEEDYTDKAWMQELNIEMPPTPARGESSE

[1] = biological target: MBP-BSU1 pre-incubated with GST-CDG1 and ATP (Arabidopsis, UniProt Q9LR78 1-793, phosphoserine at 764 (by CDG1))

| Binder | binding result (MBP-BSU1) | binding result (MBP-BSU1-S764A) | binding result [1] |
| --- | --- | --- | --- |
| B1 | binds |  |  |
| B2 |  | binds | binds |
| B3 | binds |  |  |
